Measurements taken from US20260132182A1 (published 2026).
Starred links: 1 amine or outer side, 2 acyl side, 3 side chain; linkers in the order of their positions; H or OH if unused. Non-standard residues stand in square brackets, D forms with d. Groups on a side chain read outwards from the residue. *: point of attachment. Butyryl(4-SO2NHCO(CH2)16Tz) = O=C(CCCCCCCCCCCCCCCCc1nnn[nH]1)NS(=O)(=O)CCCC(=O)*; C20 diacid = O=C(O)CCCCCCCCCCCCCCCCCCC(=O)*; C18 diacid = O=C(O)CCCCCCCCCCCCCCCCC(=O)*; γGlu = O=C(O)[C@H](CCC(=O)[*:2])N[*:1]; Desaminohistidyl = O=C(CCc1c[nH]cn1)*; Trx = NC[C@H]1CC[C@H](C(=O)O)CC1; AEEA = NCCOCCOCC(=O)O; Aib = CC(C)(N)C(=O)O

T1: human amylin-3 (a) receptor (human, UniProt P30988 25-474; O60896 24-148)
T1 sequence (looked up) 1: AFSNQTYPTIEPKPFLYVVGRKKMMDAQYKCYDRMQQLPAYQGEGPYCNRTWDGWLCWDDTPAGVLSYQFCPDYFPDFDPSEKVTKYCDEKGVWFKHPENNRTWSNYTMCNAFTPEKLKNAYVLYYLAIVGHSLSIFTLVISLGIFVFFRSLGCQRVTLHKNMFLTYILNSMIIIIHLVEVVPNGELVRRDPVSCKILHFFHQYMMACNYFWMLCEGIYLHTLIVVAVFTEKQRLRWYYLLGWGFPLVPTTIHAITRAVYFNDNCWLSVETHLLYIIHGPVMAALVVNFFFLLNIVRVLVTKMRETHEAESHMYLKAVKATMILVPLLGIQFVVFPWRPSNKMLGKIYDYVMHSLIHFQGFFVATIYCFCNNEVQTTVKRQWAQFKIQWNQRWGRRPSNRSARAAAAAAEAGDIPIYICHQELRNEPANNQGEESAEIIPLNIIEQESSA
T1 sequence (looked up) 2: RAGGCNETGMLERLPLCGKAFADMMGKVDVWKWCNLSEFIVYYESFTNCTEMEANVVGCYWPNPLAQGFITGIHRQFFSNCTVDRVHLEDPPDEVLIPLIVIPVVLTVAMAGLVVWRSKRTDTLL

B1: Compound 0125 (peptide)
peptide: H[Aib]EGTFTSDVSSYLEEQAARK(Butyryl(4-SO2NHCO(CH2)16Tz))FIAWLVRGRGEASELSTAALGRLSAELHELATLPRTETGSGSP-NH2
B2: Compound 0124 (peptide)
peptide: [Desaminohistidyl][Aib]EGTFTSDVSSYLEEQAAREFIAWLVRGRK(Butyryl(4-SO2NHCO(CH2)16Tz))EASELSTAALGRLSAELHELATLPRTETGSGSP-NH2
B3: Compound 0007 (peptide)
peptide: H[Aib]EGTFTSDVSSYLEGQAAK([AEEA-AEEA-γGlu-C18 diacid])EFIAWLVRGRGGGEASELSTAALGRLSAELHELATLPRTETGSGSP-NH2
B4: Compound 0127 (peptide)
peptide: H[Aib]EGTFTSDVSSYLEEQAARK([AEEA-AEEA-γGlu-C18 diacid])FIAWLVRGK([AEEA-AEEA-γGlu-C18 diacid])GGEASELSTAALGRLSAELHELATLPRTETGSGSP-NH2
B5: Compound 0128 (peptide)
peptide: H[Aib]EGTFTSDVSSYLEEQAARK([AEEA-AEEA-γGlu-C18 diacid])FIEWLVRGK([AEEA-AEEA-γGlu-C18 diacid])GGEASELSTAALGRLSAELHELATLPRTETGSGSP-NH2
B6: Compound 0026 (peptide)
peptide: H[Aib]EGTFTSDVSSYLEGQAAK([AEEA-AEEA-γGlu-C18 diacid])EFIAWLVRGRGQEPGQAPEASELSTAALGRLSAELHELATLPRTETGSGSP-NH2
B7: Compound 0131 (peptide)
peptide: H[Aib]EGTFTSDVSSYLEEQAARK([γGlu-C18 diacid])FIAWLVRGRK([γGlu-C18 diacid])EASELSTAALGRLSAELHELATLPRTETGSGSP-NH2
B8: Compound 0035 (peptide)
peptide: [Desaminohistidyl]AEGTFTSDVSSYLEEQAAREFIAWLVRGRK([AEEA-AEEA-γGlu-Trx-C20 diacid])EASELSTAALGRLSAELHELATLPRTETGSGSP-NH2
B9: Compound 0129 (peptide)
peptide: H[Aib]EGTFTSDVSSYLEEQAARK([AEEA-AEEA-γGlu-C18 diacid])FIEWLVRGRK([AEEA-AEEA-γGlu-C18 diacid])GGEASELSTAALGRLSAELHELATLPRTETGSGSP-NH2
B10: Compound 0636 (peptide)
peptide: H[Aib]EGTFTSDVSSYLEEQAARK([AEEA-AEEA-γGlu-γGlu-γGlu-C20 diacid])FIEWLVRGRQEAASELSTAALGRLSAELHQLATLPRTETGSGSP-NH2
B11: Compound 0106 (peptide)
peptide: H[Aib]EGTFTSDVSSYLEEQAARK([Ado-Ado-γGlu-C18 diacid])FIEWLVRGK([Ado-Ado-γGlu-C18 diacid])GEGQEPGGASELSTAALGRLSAELHELATLPRTETGSGSP-NH2

Columns and labels:
human GLP-1 receptor = human GLP-1 receptor (human, UniProt P43220 24-463); experiment: cell-based or functional assay
[1] = molecular target: T1, human amylin-3 (a) receptor; experiment: cell-based or functional assay

Binder | Human GLP-1R potency [EC50 (pM)] (human GLP-1 receptor) [pM] | Human AmyR3 potency [EC50 (pM)] [1] [pM]
B1 | 8 | 12.2
B2 | 27.9 | 24.4
B3 | 13.3 | 9.4
B4 | 7.1 | 63.9
B5 | 9.7 | 110
B6 | 8.8 | 14
B7 | 16.1 | 14.5
B8 | 16.7 | 16
B9 | 1.2 | 23.5
B10 |  | 8.5
B11 |  | 28.4
